Values quoted from earlier work, collected in PMC4752257.

Biological target: IL-4R alpha (Homo sapiens) (UniProt P24394)
Chain of UniProt P24394 (P24394 26-232): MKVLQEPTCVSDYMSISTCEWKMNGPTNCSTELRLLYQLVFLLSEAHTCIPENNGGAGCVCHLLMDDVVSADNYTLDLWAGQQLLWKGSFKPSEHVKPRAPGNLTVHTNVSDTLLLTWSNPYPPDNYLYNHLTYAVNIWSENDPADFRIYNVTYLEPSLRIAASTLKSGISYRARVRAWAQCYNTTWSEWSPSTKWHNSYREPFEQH

## IL-4 (from UniProt P05112)
  Kd: 0.6 nM
